From EP2658867B1 (Avidbiotics Corp., dated 2018)

B1: soluble MICA generated by pKK35 (His10sp in loop 3) (designed binder)
chain: EPHSLRYNLTVLSWDGSVQSGFLTEVHLDGQPFLRCDRQKCRAKPQGQWAEDVLGNKTWDRETRDLTGNGKDLRMTLAHIKDQKEGLHSLQEIRVCEIHEDNSTRSSQHFYYDGELFLSQNLETKEWTMPQSSRAQTLAMNVRNFLKEDAMKTKTHYHAMHADCLQELRRYLKSGVVLRRTVPPMVNVTRSEASEGNITVTCRASGFYPWNITLSWRQDGVSLSHDTQQWGDVLPDGNGTYQTWVATRISGGSGGGSHHHHHHHHHHSGGSGGGCYMEHSGNHSTHPVPSGK
B2: soluble MICA generated by pKK37 (loop 3.2 in loop 1) (designed binder)
chain: HHHHHHEPHSLRYNLTVLSWDGSVQSGFLTEVHLDGQPFLRCDRQKCRAKPQGQWAEDVLGNKTWDRETRDLTGNGKDLRMTLAHIKDQKEGLHSLQEIRVCEIHEDNSTRSSQHFYYDGELFLSQNLETEEWTMPQSSRAQTLAMNVRNFLKEDAMKTKTHYHAMHADCLQELRRYLKSGVVLRRTVPPMVNVTRTSRGDHPRTQVTCRASGFYPWNITLSWRQDGVSLSHDTQQWGDVLPDGNGTYQTWVATRICQGEEQRFTCYMEHSGNHSTHPVPSGK
B3: M13 phage pKK91 displaying MICA α3 domain with His10sp in loop 3 (designed binder, not shown: large carriers)
chain: TVPPMVNVTRSEASEGNITVTCRASGFYPWNITLSWRQDGVSLSHDTQQWGDVLPDGNGTYQTWVATRISGGSGGGSHHHHHHHHHHSGGSGGGCYMEHSGNHSTHPVPSGK
B4: M13 phage pKK92 displaying MICA α3 domain with loop 3.1 in loop 1 (designed binder, not shown: large carriers)
chain: TVPPMVNVTSRGDHPRTQVTCRASGFYPWNITLSWRQDGVSLSHDTQQWGDVLPDGNGTYQTWVATRICQGEEQRFTCYMEHSGNHSTHPVPSGK
B5: M13 phage pKK93 displaying MICA α3 domain with loop 3.2 in loop 1 (designed binder, not shown: large carriers)
chain: TVPPMVNVTRTSRGDHPRTQVTCRASGFYPWNITLSWRQDGVSLSHDTQQWGDVLPDGNGTYQTWVATRICQGEEQRFTCYMEHSGNHSTHPVPSGK
B6: soluble MICA generated by pKK38 (loop 3.3 in loop 1) (designed binder)
chain: HHHHHHEPHSLRYNLTVLSWDGSVQSGFLTEVHLDGQPFLRCDRQKCRAKPQGQWAEDVLGNKTWDRETRDLTGNGKDLRMTLAHIKDQKEGLHSLQEIRVCEIHEDNSTRSSQHFYYDGELFLSQNLETEEWTMPQSSRAQTLAMNVRNFLKEDAMKTKTHYHAMHADCLQELRRYLKSGVVLRRTVPPMVNVTRVPRGDSDLTVTCRASGFYPWNITLSWRQDGVSLSHDTQQWGDVLPDGNGTYQTWVATRICQGEEQRFTCYMEHSGNHSTHPVPSGK
B7: soluble MICA generated by pKK39 (loop 3.4 in loop 1) (designed binder)
chain: HHHHHHEPHSLRYNLTVLSWDGSVQSGFLTEVHLDGQPFLRCDRQKCRAKPQGQWAEDVLGNKTWDRETRDLTGNGKDLRMTLAHIKDQKEGLHSLQEIRVCEIHEDNSTRSSQHFYYDGELFLSQNLETEEWTMPQSSRAQTLAMNVRNFLKEDAMKTKTHYHAMHADCLQELRRYLKSGVVLRRTVPPMVNVTRSARGDSDHRVTCRASGFYPWNITLSWRQDGVSLSHDTQQWGDVLPDGNGTYQTWVATRICQGEEQRFTCYMEHSGNHSTHPVPSGK
B8: soluble MICA generated by pKK40 (loop 5.1 in loop 1) (designed binder)
chain: HHHHHHEPHSLRYNLTVLSWDGSVQSGFLTEVHLDGQPFLRCDRQKCRAKPQGQWAEDVLGNKTWDRETRDLTGNGKDLRMTLAHIKDQKEGLHSLQEIRVCEIHEDNSTRSSQHFYYDGELFLSQNLETEEWTMPQSSRAQTLAMNVRNFLKEDAMKTKTHYHAMHADCLQELRRYLKSGVVLRRTVPPMVNVTVTRGDTFTQSVTCRASGFYPWNITLSWRQDGVSLSHDTQQWGDVLPDGNGTYQTWVATRICQGEEQRFTCYMEHSGNHSTHPVPSGK
B9: soluble MICA generated by pKK41 (loop 5.2 in loop 1) (designed binder)
chain: HHHHHHEPHSLRYNLTVLSWDGSVQSGFLTEVHLDGQPFLRCDRQKCRAKPQGQWAEDVLGNKTWDRETRDLTGNGKDLRMTLAHIKDQKEGLHSLQEIRVCEIHEDNSTRSSQHFYYDGELFLSQNLETEEWTMPQSSRAQTLAMNVRNFLKEDAMKTKTHYHAMHADCLQELRRYLKSGVVLRRTVPPMVNVTRGDTFTQSVTCRASGFYPWNITLSWRQDGVSLSHDTQQWGDVLPDGNGTYQTWVATRICQGEEQRFTCYMEHSGNHSTHPVPSGK
B10: soluble MICA generated by pKK42 (loop 5.3 in loop 1) (designed binder)
chain: HHHHHHEPHSLRYNLTVLSWDGSVQSGFLTEVHLDGQPFLRCDRQKCRAKPQGQWAEDVLGNKTWDRETRDLTGNGKDLRMTLAHIKDQKEGLHSLQEIRVCEIHEDNSTRSSQHFYYDGELFLSQNLETEEWTMPQSSRAQTLAMNVRNFLKEDAMKTKTHYHAMHADCLQELRRYLKSGVVLRRTVPPMVNVTHLARGDDLTYVTCRASGFYPWNITLSWRQDGVSLSHDTQQWGDVLPDGNGTYQTWVATRICQGEEQRFTCYMEHSGNHSTHPVPSGK
B11: soluble MICA generated by pKK44 (extended loop 3.2sp in loop 1) (designed binder)
chain: HHHHHHEPHSLRYNLTVLSWDGSVQSGFLTEVHLDGQPFLRCDRQKCRAKPQGQWAEDVLGNKTWDRETRDLTGNGKDLRMTLAHIKDQKEGLHSLQEIRVCEIHEDNSTRSSQHFYYDGELFLSQNLETEEWTMPQSSRAQTLAMNVRNFLKEDAMKTKTHYHAMHADCLQELRRYLKSGVVLRRTVPPMVNVTSGGSGGGSTSRGDHPRTQSGGSGGGVTCRASGFYPWNITLSWRQDGVSLSHDTQQWGDVLPDGNGTYQTWVATRICQGEEQRFTCYMEHSGNHSTHPVPSGK
B12: soluble MICA generated by pKK45 (extended loop 3.3sp in loop 1) (designed binder)
chain: HHHHHHEPHSLRYNLTVLSWDGSVQSGFLTEVHLDGQPFLRCDRQKCRAKPQGQWAEDVLGNKTWDRETRDLTGNGKDLRMTLAHIKDQKEGLHSLQEIRVCEIHEDNSTRSSQHFYYDGELFLSQNLETEEWTMPQSSRAQTLAMNVRNFLKEDAMKTKTHYHAMHADCLQELRRYLKSGVVLRRTVPPMVNVTSGGSGGGSRVPRGDSDLTSGGSGGGVTCRASGFYPWNITLSWRQDGVSLSHDTQQWGDVLPDGNGTYQTWVATRICQGEEQRFTCYMEHSGNHSTHPVPSGK
B13: soluble MICA generated by pKK48 (extended loop 3.2sp in loop 3) (designed binder)
chain: EPHSLRYNLTVLSWDGSVQSGFLTEVHLDGQPFLRCDRQKCRAKPQGQWAEDVLGNKTWDRETRDLTGNGKDLRMTLAHIKDQKEGLHSLQEIRVCEIHEDNSTRSSQHFYYDGELFLSQNLETKEWTMPQSSRAQTLAMNVRNFLKEDAMKTKTHYHAMHADCLQELRRYLKSGVVLRRTVPPMVNVTRSEASEGNITVTCRASGFYPWNITLSWRQDGVSLSHDTQQWGDVLPDGNGTYQTWVATRISGGSGGGSTSRGDHPRTQSGGSGGGCYMEHSGNHSTHPVPSGK
B14: soluble MICA generated by pKK36 (loop 3.1 in loop 1) (designed binder)
chain: HHHHHHEPHSLRYNLTVLSWDGSVQSGFLTEVHLDGQPFLRCDRQKCRAKPQGQWAEDVLGNKTWDRETRDLTGNGKDLRMTLAHIKDQKEGLHSLQEIRVCEIHEDNSTRSSQHFYYDGELFLSQNLETEEWTMPQSSRAQTLAMNVRNFLKEDAMKTKTHYHAMHADCLQELRRYLKSGVVLRRTVPPMVNVTSRGDHPRTQVTCRASGFYPWNITLSWRQDGVSLSHDTQQWGDVLPDGNGTYQTWVATRICQGEEQRFTCYMEHSGNHSTHPVPSGK
B15: soluble MICA generated by pKK49 (extended loop 3.3sp in loop 3) (designed binder)
chain: EPHSLRYNLTVLSWDGSVQSGFLTEVHLDGQPFLRCDRQKCRAKPQGQWAEDVLGNKTWDRETRDLTGNGKDLRMTLAHIKDQKEGLHSLQEIRVCEIHEDNSTRSSQHFYYDGELFLSQNLETKEWTMPQSSRAQTLAMNVRNFLKEDAMKTKTHYHAMHADCLQELRRYLKSGVVLRRTVPPMVNVTRSEASEGNITVTCRASGFYPWNITLSWRQDGVSLSHDTQQWGDVLPDGNGTYQTWVATRISGGSGGGSRVPRGDSDLTSGGSGGGCYMEHSGNHSTHPVPSGK
B16: soluble MICA generated by pKK50 (extended loop 5.1sp in loop 3) (designed binder)
chain: EPHSLRYNLTVLSWDGSVQSGFLTEVHLDGQPFLRCDRQKCRAKPQGQWAEDVLGNKTWDRETRDLTGNGKDLRMTLAHIKDQKEGLHSLQEIRVCEIHEDNSTRSSQHFYYDGELFLSQNLETKEWTMPQSSRAQTLAMNVRNFLKEDAMKTKTHYHAMHADCLQELRRYLKSGVVLRRTVPPMVNVTRSEASEGNITVTCRASGFYPWNITLSWRQDGVSLSHDTQQWGDVLPDGNGTYQTWVATRISGGSGGGSVTRGDTFTQSSGGSGGGCYMEHSGNHSTHPVPSGK
B17: soluble MICA generated by pKK51 (extended loop 5.3sp in loop 3) (designed binder)
chain: EPHSLRYNLTVLSWDGSVQSGFLTEVHLDGQPFLRCDRQKCRAKPQGQWAEDVLGNKTWDRETRDLTGNGKDLRMTLAHIKDQKEGLHSLQEIRVCEIHEDNSTRSSQHFYYDGELFLSQNLETKEWTMPQSSRAQTLAMNVRNFLKEDAMKTKTHYHAMHADCLQELRRYLKSGVVLRRTVPPMVNVTRSEASEGNITVTCRASGFYPWNITLSWRQDGVSLSHDTQQWGDVLPDGNGTYQTWVATRISGGSGGGSHLARGDDLTYSGGSGGGCYMEHSGNHSTHPVPSGK

What was measured:
integrin αVβ3 [1] = target: T1, integrin αVβ3 (UniProt P06756 31-992; P05106 27-718); assay: ELISA, integrin coated, anti-MICA-HRP
T1 construct: Coated on the ELISA plate
T1 sequence (P06756 31-992, chain 1 of 2): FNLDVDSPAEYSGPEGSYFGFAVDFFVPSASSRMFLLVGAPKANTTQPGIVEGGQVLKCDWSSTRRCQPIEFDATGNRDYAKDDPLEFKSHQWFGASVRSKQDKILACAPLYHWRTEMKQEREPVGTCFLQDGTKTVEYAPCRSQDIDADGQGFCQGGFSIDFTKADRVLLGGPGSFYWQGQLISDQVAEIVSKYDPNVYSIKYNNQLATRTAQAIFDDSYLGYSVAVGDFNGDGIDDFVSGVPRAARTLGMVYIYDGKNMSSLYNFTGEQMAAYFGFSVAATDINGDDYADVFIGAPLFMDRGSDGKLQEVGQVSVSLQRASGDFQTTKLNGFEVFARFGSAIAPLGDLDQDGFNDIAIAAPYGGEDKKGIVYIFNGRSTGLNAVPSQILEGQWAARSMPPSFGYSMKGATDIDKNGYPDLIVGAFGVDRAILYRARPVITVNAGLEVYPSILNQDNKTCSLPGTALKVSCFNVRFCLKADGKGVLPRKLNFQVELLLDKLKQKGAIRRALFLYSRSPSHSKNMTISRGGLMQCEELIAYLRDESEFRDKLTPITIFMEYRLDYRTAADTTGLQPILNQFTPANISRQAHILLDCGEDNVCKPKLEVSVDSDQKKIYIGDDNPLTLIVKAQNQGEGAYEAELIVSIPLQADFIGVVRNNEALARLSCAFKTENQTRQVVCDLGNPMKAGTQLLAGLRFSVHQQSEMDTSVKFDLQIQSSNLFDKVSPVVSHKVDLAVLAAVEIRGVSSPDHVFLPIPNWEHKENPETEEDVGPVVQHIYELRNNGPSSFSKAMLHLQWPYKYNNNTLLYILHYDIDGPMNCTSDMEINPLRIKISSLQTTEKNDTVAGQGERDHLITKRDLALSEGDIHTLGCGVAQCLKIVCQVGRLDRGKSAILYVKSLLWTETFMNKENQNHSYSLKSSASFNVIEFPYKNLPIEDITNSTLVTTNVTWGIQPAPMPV
T1 sequence (P05106 27-718, chain 2 of 2): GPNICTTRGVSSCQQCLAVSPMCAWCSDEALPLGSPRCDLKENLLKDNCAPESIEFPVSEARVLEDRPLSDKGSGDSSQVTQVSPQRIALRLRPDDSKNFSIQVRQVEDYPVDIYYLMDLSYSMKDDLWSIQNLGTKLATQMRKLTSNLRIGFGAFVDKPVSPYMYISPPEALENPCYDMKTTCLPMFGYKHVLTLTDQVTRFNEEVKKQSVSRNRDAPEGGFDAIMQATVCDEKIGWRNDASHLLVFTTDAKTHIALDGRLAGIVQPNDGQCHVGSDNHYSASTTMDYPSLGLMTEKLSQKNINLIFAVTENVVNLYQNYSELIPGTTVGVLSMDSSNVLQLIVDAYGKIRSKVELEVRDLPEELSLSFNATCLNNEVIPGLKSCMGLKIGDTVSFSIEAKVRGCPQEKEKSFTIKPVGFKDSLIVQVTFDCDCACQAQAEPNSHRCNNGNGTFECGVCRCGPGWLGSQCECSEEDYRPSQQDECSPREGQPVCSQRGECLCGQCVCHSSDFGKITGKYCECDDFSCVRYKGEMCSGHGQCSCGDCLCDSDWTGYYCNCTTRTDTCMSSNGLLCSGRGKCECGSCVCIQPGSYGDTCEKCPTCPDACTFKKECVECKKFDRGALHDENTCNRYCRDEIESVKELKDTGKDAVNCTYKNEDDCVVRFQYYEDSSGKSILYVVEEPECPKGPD

integrin αVβ5 [2] = target: T2, integrin αVβ5 (UniProt P06756 31-992; P18084 24-719); assay: ELISA, integrin coated, anti-MICA-HRP
T2 construct: Coated on the ELISA plate
T2 sequence (P06756 31-992, chain 1 of 2): as the sequence (P06756 31-992, chain 1 of 2) above
T2 sequence (P18084 24-719, chain 2 of 2): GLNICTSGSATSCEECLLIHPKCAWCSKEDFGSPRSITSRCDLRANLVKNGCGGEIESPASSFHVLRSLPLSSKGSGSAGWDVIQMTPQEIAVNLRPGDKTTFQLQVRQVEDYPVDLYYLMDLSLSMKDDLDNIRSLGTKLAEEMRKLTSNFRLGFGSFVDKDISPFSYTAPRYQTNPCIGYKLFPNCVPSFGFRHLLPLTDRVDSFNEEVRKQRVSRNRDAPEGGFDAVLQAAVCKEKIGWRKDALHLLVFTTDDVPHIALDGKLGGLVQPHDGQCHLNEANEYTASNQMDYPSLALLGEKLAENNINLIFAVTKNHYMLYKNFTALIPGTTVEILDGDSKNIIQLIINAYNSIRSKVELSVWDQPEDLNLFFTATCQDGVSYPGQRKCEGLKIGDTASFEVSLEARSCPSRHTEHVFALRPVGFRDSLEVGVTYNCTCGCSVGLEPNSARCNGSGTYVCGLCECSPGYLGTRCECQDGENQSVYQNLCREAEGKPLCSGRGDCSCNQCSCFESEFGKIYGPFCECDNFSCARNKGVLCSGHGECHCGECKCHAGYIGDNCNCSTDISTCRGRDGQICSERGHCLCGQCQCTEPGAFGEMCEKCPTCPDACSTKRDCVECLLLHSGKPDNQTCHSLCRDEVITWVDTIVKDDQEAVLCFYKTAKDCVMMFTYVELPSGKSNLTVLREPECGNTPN

integrin αVβ3 [3] = target: T1, integrin αVβ3; assay: phage ELISA, integrin coated, anti-M13-HRP
integrin αVβ5 [4] = target: T2, integrin αVβ5; assay: phage ELISA, integrin coated, anti-M13-HRP

Row | Binder | signal (integrin αVβ3 [1]) [OD] | signal/ng (integrin αVβ3 [1]) [signal/ng] | signal (integrin αVβ5 [2]) [OD] | signal/ng (integrin αVβ5 [2]) [signal/ng] | signal (integrin αVβ3 [3]) [OD] | signal (integrin αVβ5 [4]) [OD] | signal (integrin αVβ3 [3]; record 2) [OD] | signal (integrin αVβ5 [4]; record 2) [OD]
1 | B1 | 0.419 | 2.46 | 0.392 | 2.31 | – | – | – | –
2 | B2 | 0.777 | 22.4 | 0.779 | 22.4 | – | – | – | –
3 | B3 | – | – | – | – | 0.303 | 0.078 | – | –
4 | B4 | – | – | – | – | 0.858 | 1.32 | – | –
5 | B5 | – | – | – | – | 0.284 | 0.291 | 0.616 | 0.774
6 | B6 | 0.291 | 30.7 | 0.291 | 30.7 | – | – | – | –
7 | B7 | 0.482 | 18 | 0.528 | 19.7 | – | – | – | –
8 | B8 | 0.485 | 19.5 | 0.675 | 27.1 | – | – | – | –
9 | B9 | 0.516 | 17.7 | 0.65 | 22.4 | – | – | – | –
10 | B10 | 0.526 | 21.2 | 0.565 | 22.8 | – | – | – | –
11 | B11 | 0.41 | 8.92 | 0.46 | 10 | – | – | – | –
12 | B12 | 0.393 | 9.51 | 0.41 | 9.92 | – | – | – | –
13 | B13 | 0.478 | 6.08 | 0.604 | 7.68 | – | – | – | –
14 | B14 | 0.55 | 19 | 0.526 | 18.1 | – | – | – | –
15 | B15 | 0.508 | 5.86 | 0.478 | 5.51 | – | – | – | –
16 | B16 | 0.546 | 5.85 | 0.721 | 7.73 | – | – | – | –
17 | B17 | 0.694 | 7.2 | 1.05 | 10.9 | – | – | – | –
